Source: US20260176324A1 (published 2026)
Changes are numbered by the printed parent chain. One block for each binder: values may come before it.

Assays:
[1] = target: T1, KRAS G12V peptide on HLA-A*11:01 (human); test: cytokine release
T1 peptide: VVGAVGVGK
Experimental: (§1) The affinity assay of TCR-T cells was performed as follows. Antigen-presenting cells (HLA-A*11:01 overexpressing T2 cells or K562 cells) were collected, and counted. […] 1 mL of cell suspension was added to each well of a 24-well plate, respectively. […] The cells were incubated in an incubator (37° C., 5% CO₂) for 2 h. After incubation, the antigen-presenting cells were collected and washed, and 100 μl of the antigen-presenting cells at 1E6/mL were added to corresponding wells of 96-well plates. […] Various nwTCR-T cells were co-cultured with the antigen-presenting cells (37° C., 5% CO₂) for 16 h respectively.

[2] = target: T2, KRAS G12V peptide on HLA-A*11:01 (human); test: multimer staining
T2 peptide: VVVGAVGVGK

[3] = target: T1, KRAS G12V peptide on HLA-A*11:01; test: multimer staining
[4] = target: T2, KRAS G12V peptide on HLA-A*11:01; test: cytokine release
Experimental: as §1

- binding result [1]: recognises
- binding result [2]: recognises
B1: nwTCR-0127 (TCR, V domains shown)
Valpha: DQQVKQNSPSLSVQEGRISILNCDYTNSMFDYFLWYKKYPAEGPTFLISISSIKDKNEDGRFTVFLNKSAKHLSLHIVPSQPGDSAVYFCAGYQGGYKLSFGAGTTVTVRA
Vbeta: EAQVTQNPRYLITVTGKKLTVTCSQNMNHEYMSWYRQDPGLGLRQIYYSMNVEVTDKGDVPEGYKVSRKEKRNFPLILESPSPNQTSLYFCASSTRDRDNEQFFGPGTRLTVL

- binding result [3]: recognises
B2: nwTCR-2310 (TCR, V domains shown)
Valpha: SQQGEEDPQALSIQEGENATMNCSYKTSINNLQWYRQNSGRGLVHLILIRSNEREKHSGRLRVTLDTSKKSSSLLITASRAADTASYFCATDGGGGADGLTFGKGTHLIIQP
Vbeta: DSGVTQTPKHLITATGQRVTLRCSPRSGDLSVYWYQQSLDQGLQFLIQYYNGEERAKGNILERFSAQQFPDLHSELNLSSLELGDSALYFCASSLHRDSDTEAFFGQGTRLTVV

- binding result [3]: recognises
B3: nwTCR-2390 (TCR, V domains shown)
Valpha: B2 Valpha with G93S
Vbeta: B2 Vbeta with L95H, H96G, D100T, T101D, E102T, A103Q, F104Y, Q107P, V114L

- binding result [2]: recognises
B4: nwTCR-1862 (TCR, V domains shown)
Valpha: GEDVEQSLFLSVREGDSSVINCTYTDSSSTYLYWYKQEPGAGLQLLTYIFSNMDMKQDQRLTVLLNKKDKHLSLRIADTQTGDSAIYFCAERGTDSWGKLQFGAGTQVVVTP
Vbeta: GAVVSQHPSWVICKSGTSVKIECRSLDFQATTMFWYRQFPKQSLMLMATSNEGSKATYEQGVEKDKFLINHASLTLSTLTVTSAHPEDSSFYICSARFANYYEQYFGPGTRLTVT

- binding result [3]: recognises
B5: nwTCR-2629 (TCR, V domains shown)
Valpha: AQSVTQLDSHVSVSEGTPVLLRCNYSSSYSPSLFWYVQHPNKGLQLLLKYTSAATLVKGINGFEAEFKKSETSFHLTKPSAHMSDAAEYFCVVSVWTDKLIFGTGTRLQVFP
Vbeta: GAVVSQHPSWVICKSGTSVKIECRSLDFQATTMFWYRQFPKQSLMLMATSNEGSKATYEQGVEKDKFLINHASLTLSTLTVTSAHPEDSSFYICSANRDFGIYEQYFGPGTRLTVT

- binding result [1]: recognises
- binding result [2]: recognises
B6: nwTCR-2563 (TCR, V domains shown)
Valpha: SQQGEEDPQALSIQEGENATMNCSYKTSINNLQWYRQNSGRGLVHLILIRSNEREKHSGRLRVTLDTSKKSSSLLITASRAADTASYFCATDRTGGYNKLIFGAGTRLAVHP
Vbeta: ETGVTQSPTHLIKTRGQQVTLRCSSQSGHNTVSWYQQALGQGPQFIFQYYREEENGRGNFPPRFSGLQFPNYSSELNVNALELDDSALYLCASSLQTGDEQYFGPGTRLTVT

- binding result [3]: recognises
B7: nwTCR-2424 (TCR, V domains shown)
Valpha: QKEVEQNSGPLSVPEGAIASLNCTYSDRGSQSFFWYRQYSGKSPELIMFIYSNGDKEDGRFTAQLNKASQYVSLLIRDSQPSDSATYLCARKKTSYDKVIFGPGTSLSVIP
Vbeta: DSGVTQTPKHLITATGQRVTLRCSPRSGDLSVYWYQQSLDQGLQFLIQYYNGEERAKGNILERFSAQQFPDLHSELNLSSLELGDSALYFCASSLGDSEQFFGPGTRLTVL

- binding result [1]: recognises
- binding result [2]: recognises
B8: nwTCR-0126 (TCR, V domains shown)
Valpha: AQKVTQAQTEISVVEKEDVTLDCVYETRDTTYYLFWYKQPPSGELVFLIRRNSFDEQNEISGRYSWNFQKSTSSFNFTITASQVVDSAVYFCALSDPRYSGGGADGLTFGKGTHLIIQP
Vbeta: DSGVTQTPKHLITATGQRVTLRCSPRSGDLSVYWYQQSLDQGLQFLIQYYNGEERAKGNILERFSAQQFPDLHSELNLSSLELGDSALYFCASSPRGGDSILDTQYFGPGTRLTVL

- binding result [2]: recognises
B9: nwTCR-2241 (TCR, V domains shown)
Valpha: ELKVEQNPLFLSMQEGKNYTIYCNYSTTSDRLYWYRQDPGKSLESLFVLLSNGAVKQEGRLMASLDTKARLSTLHITAAVHDLSATYFCAVDKAAGNKLTFGGGTRVLVKP
Vbeta: GEEVAQTPKHLVRGEGQKAKLYCAPIKGHSYVFWYQQVLKNEFKFLISFQNENVFDETGMPKERFSAKCLPNSPCSLEIQATKLEDSAVYFCASSPHHRYEQYFGPGTRLTVT

- binding result [3]: recognises
B10: nwTCR-2561 (TCR, V domains shown)
Valpha: GNSVTQMEGPVTLSEEAFLTINCTYTATGYPSLFWYVQYPGEGLQLLLKATKADDKGSNKGFEATYRKETTSFHLEKGSVQVSDSAVYFCALPAGGGADGLTFGKGTHLIIQP
Vbeta: GAGVSQSPSNKVTEKGKDVELRCDPISGHTALYWYRQSLGQGLEFLIYFQGNSAPDKSGLPSDRFSAERTGGSVSTLTIQRTQQEDSAVYLCASSFGTSGDQYEQYFGPGTRLTVT

- binding result [4]: recognises
- binding result [3]: recognises
B11: nwTCR-2595 (TCR, V domains shown)
Valpha: ILNVEQSPQSLHVQEGDSTNFTCSFPSSNFYALHWYRWETAKSPEALFVMTLNGDEKKKGRISATLNTKEGYSYLYIKGSQPEDSATYLCAFNNQGGKLIFGQGTELSVKP
Vbeta: EAQVTQNPRYLITVTGKKLTVTCSQNMNHEYMSWYRQDPGLGLRQIYYSMNVEVTDKGDVPEGYKVSRKEKRNFPLILESPSPNQTSLYFCASSSGTGGGAEAFFGQGTRLTVV

- binding result [1]: recognises
- binding result [2]: recognises
B12: nwTCR-1708 (TCR, V domains shown)
Valpha: QKEVEQNSGPLSVPEGAIASLNCTYSDRGSQSFFWYRQYSGKSPELIMFIYSNGDKEDGRFTAQLNKASQYVSLLIRDSQPSDSATYLCAVNMPGNMLTFGGGTRLMVKP
Vbeta: DARVTQTPRDKVTEMGQEVTMRCQPILGHNTVFWYRQTMMQGLELLAYFRNRAPLDDSGMPKDRFSAEMPDATLATLKIQPSEPRDSAVYFCASGPEGLDNEQFFGPGTRLTVL

- binding result [3]: recognises
B13: nwTCR-2392 (TCR, V domains shown)
Valpha: DQQVKQNSPSLSVQEGRISILNCDYTNSMFDYFLWYKKYPAEGPTFLISISSIKDKNEDGRFTVFLNKSAKHLSLHIVPSQPGDSAVYFCAASYAGSARQLTFGSGTQLTVLP
Vbeta: GAGVSQSPSNKVTEKGKDVELRCDPISGHTALYWYRQRLGQGLEFLIYFQGNSAPDKSGLPSDRFSAERTGESVSTLTIQRTQQEDSAVYLCASSPGGNYGYTFGSGTRLTVV

- binding result [2]: recognises
B14: nwTCR-2308 (TCR, V domains shown)
Valpha: KDQVFQPSTVASSEGAVVEIFCNHSVSNAYNFFWYLHFPGCAPRLLVKGSKPSQQGRYNMTYERFSSSLLILQVREADAAVYYCAGSNDYKLSFGAGTTVTVRA
Vbeta: EAQVTQNPRYLITVTGKKLTVTCSQNMNHEYMSWYRQDPGLGLRQIYYSMNVEVTDKGDVPEGYKVSRKEKRNFPLILESPSPNQTSLYFCASSTSPYNEQFFGPGTRLTVL

- binding result [1]: recognises
- binding result [2]: recognises
B15: nwTCR-0125 (TCR, V domains shown)
Valpha: AQKVTQAQTEISVVEKEDVTLDCVYETRDTTYYLFWYKQPPSGELVFLIRRNSFDEQNEISGRYSWNFQKSTSSFNFTITASQVVDSAVYFCARDQTGANNLFFGTGTRLTVIP
Vbeta: DVKVTQSSRYLVKRTGEKVFLECVQDMDHENMFWYRQDPGLGLRLIYFSYDVKMKEKGDIPEGYSVSREKKERFSLILESASTNQTSMYLCASSPPHLASGASTDTQYFGPGTRLTVL
